In ChEMBL document CHEMBL1147236, “Semiplenamides A-G, fatty acid amides from a Papua New Guinea collection of the marine cyanobacterium Lyngbya semiplena” (J Nat Prod, 2003):

Substrate: CCCCC/C=C\C/C=C\C/C=C\C/C=C\CCCC(=O)NCCO
Conditions: Mus musculus; N18TG2
Description: Activity at FAAH in mouse N18TG2 cell membranes

B1: Fatty-acid amide hydrolase 1 (Mus musculus), O08914 (protein)
chain: MVLSEVWTALSGLSGVCLACSLLSAAVVLRWTRSQTARGAVTRARQKQRAGLETMDKAVQRFRLQNPDLDSEALLALPLLQLVQKLQSGELSPEAVLFTYLGKAWEVNKGTNCVTSYLTDCETQLSQAPRQGLLYGVPVSLKECFSYKGHASTLGLSLNEGVTSESDCVVVQVLKLQGAVPFVHTNVPQSMLSYDCSNPLFGQTMNPWKPSKSPGGSSGGEGALIGSGGSPLGLGTDIGGSIRFPSAFCGICGLKPTGNRLSKSGLKSCVYGQTAVQLSVGPMARDVDSLALCMKALLCEDLFRLDSTIPPLPFREEIYRSSRPLRVGYYETDNYTMPTPAMRRAVMETKQSLEAAGHTLVPFLPNNIPYALEVLSAGGLFSDGGCSFLQNFKGDFVDPCLGDLVLVLKLPRWFKKLLSFLLKPLFPRLAAFLNSMCPRSAEKLWELQHEIEMYRQSVIAQWKAMNLDVVLTPMLGPALDLNTPGRATGAISYTVLYNCLDFPAGVVPVTTVTAEDDAQMEHYKGYFGDMWDNILKKGMKKGIGLPVAVQCVALPWQEELCLRFMREVERLMTPEKRPS
Km: 15 µM
